Laboratory results taken from US20240368565A1, “COMPLEMENTATION-BASED TAGS AND REPORTERS FOR DUAL-MODALITY LABELING” (Promega Corporation, priority 2023, published 2024).
Substitutions are numbered along the chain they refer to. Names may count otherwise.

What was measured:
[1] = Labeling kinetics of LgHT-LgBiT variants with TMR HaloTag ligand in E. coli lysates (fluorescence polarization); type: biochemical; details: 200 micromolar HaloTag[3-19] synthetic peptide, 10 nM TMR HaloTag ligand, versus M2F control
[2] = Labeling kinetics with various HaloTag ligands (fluorescence polarization); type: biochemical; details: proteins at 10 nM, ligand at 2.5 nM, Tris-buffered saline+0.01% CHAPS
Method: (§1) FIG. 132. Labeling kinetics of HaloTag7 and HaloTag[22-297](M2F+D53G+K140E)-12×Gly/Ser-LgBiT-3×Gly/Ser-6×His with HaloTag ligand JF549. Fluorescence polarization was monitored over time to observe labeling kinetics of JF549 HaloTag ligand by HaloTag standard protein or HaloTag[22-297](M2F+D53G+K140E)-12×Gly/Ser-LgBiT-3×Gly/Ser-6×His. The experiment was completed in Tris-buffered saline+0.01% CHAPS with proteins at 10 nM and ligand at 2.5 nM.
as §1, with “133.” for “132.”, “JF503.” for “JF549.”, “JF503” for “JF549”
as §1, with “134.” for “132.”, “JFX554.” for “JF549.”, “JFX554” for “JF549”
as §1, with “135.” for “132.”, “Oregon Green.” for “JF549.”, “Oregon Green” for “JF549”
FIG. 136. Labeling kinetics of HaloTag7 and HaloTag[22-297](M2F+D53G+K140E)-12×Gly/Ser-LgBiT-3×Gly/Ser-6×His with a FAM HaloTag ligand. Fluorescence polarization was monitored over time to observe labeling kinetics of FAM HaloTag ligand by HaloTag standard protein or HaloTag[22-297](M2F+D53G+K140E)-12×Gly/Ser-LgBiT-3×Gly/Ser-6×His. The experiment was completed in Tris-buffered saline+0.01% CHAPS with proteins at 10 nM and ligand at 2.5 nM.

DualTag peptide [3] = test: Dissociation kinetics after complementation with synthetic peptide (dilution, luminescence); details: 100 nM protein, 200 nM peptide, diluted to 1 pM, furimazine
Method: After preincubation with peptide, samples were diluted to 1 pM in either buffer alone or buffer 100 nM Tag peptide. At various time points, samples were transferred into luminescent substrate (Furimazine) to monitor dissociation of the complex.

DualTag peptide [4] = test: BRET measurement of reporter stabilization by synthetic peptide; type: biochemical; details: room temperature, HaloTag NanoBRET 618 Ligand, versus LgHT-LgBiT alone
Method: FIG. 122A-C. […] After preincubation with peptide at 4° C., solutions were diluted 100-fold into buffer and incubated at room temperature. At time points, samples were added 1:1 to buffer either containing or lacking 10 nM final HaloTag® NanoBRET® 618 Ligand. For the reporter alone condition, samples were added 1:1 to a solution containing 10 nM final VS-HiBiT peptide with or without the 618 ligand in order to complement the LgBiT to create the BRET donor. After the last time point, furimazine substrate was added, followed by measuring the FIG. 122(A) luminescent donor signal using a 450 nm bandpass filter and FIG. 122(B) luminescent acceptor signal using a 600 nm longpass filter. The BRET ratio FIG. 122(C) is determined by dividing the acceptor signal by the donor signal for each sample.

[5] = system: synthetic HaloTag[3-19] peptide; test: Stabilization of activity of LgHT-LgBiT variants by synthetic peptides in E. coli lysates; type: biochemical; details: 10 micromolar or more synthetic peptide, 10 minutes at temperature, 50 nM JF646 HaloTag ligand
[6] = 10 nM protein, 125 micromolar HaloTag[3-19] synthetic peptide, 10 minutes, 2.5 nM TMR HaloTag ligand

B1: M2F+D53G+V177E: reporter variant of FIG. 53 (protein)
chain: MFHYVDVGPRDGTPVLFLHGNPTSSYVWRNIIPHVAPTHRCIAPDLIGMGKSGKPDLGYFFDDHVRFMDAFIEALGLEEVVLVIHDWGSALGFHWAKRNPERVKGIAFMEFIRPIPTWDEWPEFARETFQAFRTTDVGRKLIIDQNVFIEGTLPMGVVRPLTEVEMDHYREPFLNPEDREPLWRFPNELPIAGEPANIVALVEEYMDWLHQSPVPKLLFWGTPGVLIPPAEAARLAKSLPNCKAVDIGPGLNLLQEDNPDLIGSEIARWLSTLEISGGSGGSGGGGSGGMVFTLEDFVGDWEQTAAYNLDQVLEQGGVSSLLQNLAVSVTPIQRIVRSGENALKIDIHVIIPYEGLSADQMAQIEEVFKVVYPVDDHHFKVILPYGTLVIDGVTPNMLNYFGRPYEGIAVFDGKKITVTGTLWNGNKIIDERLITPDGSMLFRVTINSGSGHHHHHH
[1]
  Labeling with TMR HaloTag ligand, response to synthetic peptide complementation: faster ligand binding and labeling

B2: M2F+K140E: reporter variant of FIG. 54 and 58 (protein)
chain: B1 chain with G53D, K140E, E177V
[1]
  Labeling with TMR HaloTag ligand, response to synthetic peptide complementation: better fold response to complementation with the peptide

B3: M2F+D53G+K140E: triple mutant reporter, best candidate protein (protein)
chain: B1 chain with K140E, E177V
[1]
  Labeling with TMR HaloTag ligand, response to synthetic peptide complementation: best dynamic range of all combinations tested
[2]
  Function with FAM HaloTag ligand: functional
  Function with JF503 HaloTag ligand: functional
  Function with JF549 HaloTag ligand: functional
  Function with JFX554 HaloTag ligand: functional
  Function with Oregon Green HaloTag ligand: functional

B4: LgHT-LgBiT: tandem polypeptide reporter (Reporter) of FIG. 120, 122, 124 (protein)
chain: B1 chain with G53D, E177V
DualTag peptide [3]
  Dissociation from the DualTag peptide: exceptionally slow dissociation kinetics
DualTag peptide [4]
  LgBiT luminescence and LgHT ligand binding activity over time (Raw BRET ratio): remain intact for longer

B5: LgBiT: polypeptide component of a bioluminescent complex (β1-9-like polypeptide) (protein)
chain: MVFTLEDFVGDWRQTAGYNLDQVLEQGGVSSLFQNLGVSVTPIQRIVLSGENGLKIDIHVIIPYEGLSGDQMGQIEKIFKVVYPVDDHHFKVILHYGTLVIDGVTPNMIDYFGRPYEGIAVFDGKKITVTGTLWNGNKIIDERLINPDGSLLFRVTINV
DualTag peptide [3]
  Dissociation from the DualTag peptide: faster dissociation

B6: D53G+V177E: reporter variant of FIG. 50 (protein)
chain: MFHYVDVGPRDGTPVLFLHGNPTSSYVWRNIIPHVAPTHRCIAPDLIGMGKSGKPDLGYFFDDHVRFMDAFIEALGLEEVVLVIHDWGSALGFHWAKRNPERVKGIAFMEFIRPIPTWDEWPEFARETFQAFRTTDVGRKLIIDQNVFIEGTLPMGVVRPLTEVEMDHYREPFLNPEDREPLWRFPNELPIAGEPANIVALVEEYMDWLHQSPVPKLLFWGTPGVLIPPAEAARLAKSLPNCKAVDIGPGLNLLQEDNPDLIGSEIARWLSTLEISGGSGGSGGGGSGGMVFTLEDFVGDWEQTAAYNLDQVLEQGGVSSLLQNLAVSVTPIQRIVRSGENALKIDIHVIIPYEGLSADQMAQIEEVFKVVYPVDDHHFKVILPYGTLVIDGVTPNMLNYFGRPYEGIAVFDGKKITVTGTLWNGNKIIDERLITPDGSMLFRVTINS
[5]
  Optimal temperature of peptide stabilization versus the non-peptide condition: ~35 °C

B7: M49F+L57I: reporter variant of FIG. 52 (protein)
chain: B6 chain with M49F, G53D, L57I, E177V
[5]
  Optimal temperature of peptide stabilization versus the non-peptide condition: ~40 °C

B8: M49F+S89A: reporter variant of FIG. 51 (protein)
chain: B6 chain with M49F, G53D, S89A, E177V
[5]
  Optimal temperature of peptide stabilization versus the non-peptide condition: ~35 °C

B9: M2F+D53S+V177E: more highly stabilized purified reporter variant of FIG. 60 (protein)
chain: B6 chain with G53S
[6]
  Loss of activity at 37° C. temperature challenge: loses less than half of its activity
